Patent publication US20100029507

Experiments:
[1] = target: E. coli malic enzyme-kemptide fusion protein (UniProt P26616)
[2] = target: bovine serum albumin (UniProt P02769)
[3] = test system: kemptide

Sequence of E. coli malic enzyme-kemptide fusion protein (P26616 whole entry, looked up, the tested form may be a part): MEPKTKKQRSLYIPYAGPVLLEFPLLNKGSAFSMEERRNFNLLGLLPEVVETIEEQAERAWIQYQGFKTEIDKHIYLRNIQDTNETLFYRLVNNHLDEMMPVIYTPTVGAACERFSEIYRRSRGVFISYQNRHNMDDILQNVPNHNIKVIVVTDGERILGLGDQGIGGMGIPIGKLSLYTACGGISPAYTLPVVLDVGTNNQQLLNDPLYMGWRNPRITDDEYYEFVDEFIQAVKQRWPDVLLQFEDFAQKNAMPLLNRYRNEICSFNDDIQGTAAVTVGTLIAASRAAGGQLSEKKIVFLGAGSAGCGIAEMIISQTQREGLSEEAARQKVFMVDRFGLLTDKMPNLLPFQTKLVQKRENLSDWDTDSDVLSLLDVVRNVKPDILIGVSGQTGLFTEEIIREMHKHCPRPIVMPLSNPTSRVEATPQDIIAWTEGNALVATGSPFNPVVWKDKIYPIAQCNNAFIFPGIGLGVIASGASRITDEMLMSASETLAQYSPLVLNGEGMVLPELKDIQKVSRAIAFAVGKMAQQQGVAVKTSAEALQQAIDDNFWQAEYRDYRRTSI
Sequence of bovine serum albumin (P02769 25-607): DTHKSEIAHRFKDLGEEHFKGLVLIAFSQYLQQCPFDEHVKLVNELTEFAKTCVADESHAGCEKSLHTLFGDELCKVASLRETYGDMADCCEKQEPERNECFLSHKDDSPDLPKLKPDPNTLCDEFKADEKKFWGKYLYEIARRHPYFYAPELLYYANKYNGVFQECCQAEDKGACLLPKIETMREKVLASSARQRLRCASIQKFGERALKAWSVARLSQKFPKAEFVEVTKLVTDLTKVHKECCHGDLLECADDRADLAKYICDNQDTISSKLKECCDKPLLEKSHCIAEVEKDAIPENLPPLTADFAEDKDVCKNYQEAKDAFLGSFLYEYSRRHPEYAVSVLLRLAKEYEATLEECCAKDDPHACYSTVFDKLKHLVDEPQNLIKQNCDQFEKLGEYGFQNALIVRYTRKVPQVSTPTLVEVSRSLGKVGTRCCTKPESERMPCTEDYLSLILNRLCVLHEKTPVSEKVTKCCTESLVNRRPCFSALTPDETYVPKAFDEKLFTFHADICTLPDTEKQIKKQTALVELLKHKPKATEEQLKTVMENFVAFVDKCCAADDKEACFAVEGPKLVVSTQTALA

In the case of cAMP-dependent protein kinase, the “phosphorylation with [gamma-32P]ATP on the biochip after different blocking solutions or none” value [1] was “clear spots were observed not only when 1% BSA was treated but also when 1% glycine and 10% glycerol were treated”, the “phosphorylation with [gamma-32P]ATP on the biochip, X-ray film” value [1] was “spot signals were clearly confirmed on the malic enzyme-kemptide fusion protein or kemptide spot” and the “phosphorylation with [gamma-32P]ATP on the biochip, X-ray film” value [2] was “no signal was observed on No. 1 BSA spot selected as a negative control”. The “phosphorylation with [gamma-32P]ATP on the biochip after different blocking solutions or none” value [3] was “clear spots were observed not only when 1% BSA was treated but also when 1% glycine and 10% glycerol were treated”, the “phosphorylation with [gamma-32P]ATP on the biochip, X-ray film” value [3] was “spot signals were clearly confirmed on the malic enzyme-kemptide fusion protein or kemptide spot” and the “phosphorylation with [gamma-32P]ATP on the biochip, X-ray film against image plate (IP)” value [3] was “signals were clearly detected on IP film even with short sensitization time”.
